Tested on: recombinant SDI-1 protein

## CDK2 (kinase assays of Example 11)
  phosphorylation of histone H1: The recombinant SDI-1 protein of the present invention inhibits the phosphorylation of histone H1 by CDK2

From patent publication US20030133971
